Test results taken from patent US20260364214A1, “MULTIVALENT FIBROBLAST ACTIVATION PROTEIN LIGANDS FOR TARGETED DELIVERY APPLICATIONS” (Philochem AG, priority 2022, published 2026).

Key:
HT-1080.hFAP tumors = assay: Quantitative in vivo MMAE release in tumor and healthy organs; set-up: species or system mouse (athymic Balb/c AnNRj-Foxn1); details: 250 nmol/kg; vs ESV6-GlyPro-MMAE and Bi-ESV6-GlyPro-MMAE
Excerpt: The ESV6 binding moiety in monomeric, dimeric or trimeric form was conjugated to an identical linker-payload structure based on a Glycine-Proline linker and an MMAE cytotoxic moiety. The three conjugates: (i) ESV6-GlyPro-MMAE—corresponding to Conjugate 58a of EP3891138B1—, (ii) Bi-ESV6-GlyPro-MMAE—corresponding to Conjugate 11 of WO2022/171811A1, and (iii) Tri-ESV6-GlyPro-MMAE—corresponding to Conjugate 9 of the present invention—, were compared in a tumor mouse model to study the efficacy of release of the MMAE cytotoxic moiety into the tumor.
HT-1080.hFAP tumors were implanted into the right flank of athymic Balb/c AnNRj-Foxn1 mice and allowed to grow to an average volume of approximately 200 mm^3. Mice were injected with the three conjugates at a dose of 250 nmol/kg and sacrificed at different timepoints after administration. Fresh blood was collected in lithium heparin tubes (BD Microcontainer LH Tubes), vortexed, and centrifuged (15,000 g, 15 minutes). […] Peak areas of analytes and internal standards were integrated, and corresponding ratios were calculated. The ratios were then transformed into pmol/g of wet tissue using single-concentration external calibration points and corrected by the total weight of the sample analysed. The percentage of injected dose per gram (% ID/g) was finally calculated by normalizing the value based on the total dose injected into the mouse. […]

[1] = Tolerability (body weight change) of MMAE conjugates in HT-1080.hFAP tumor bearing mice; format: in vivo, mouse (athymic Balb/c AnNRj-Foxn1); details: 50 or 125 nmol/kg
Protocol: The anti-cancer efficacy of (i) ESV6-GlyPro-MMAE (50 or 125 nmol/kg) —corresponding to Conjugate 58a of EP3891138B1—, and (ii) Tri-ESV6-GlyPro-MMAE (50 or 125 nmol/kg) according to the present invention was assessed in athymic Balb/c AnNRj-Foxn1 mice bearing HT-1080.hFAP tumor in the right flank. Therapy experiments started when the average volume of established tumors had reached 80-100 mm3. Body weight of the animals and tumor volume were daily measured and recorded. Tumor dimensions were measured with an electronic caliper and tumor volume was calculated with the formula (long side, mm)×(short side, mm)×(short side, mm)×0.5. Animals were euthanized when one or more termination criterium indicated by the experimental license was reached. Prism 7 software (GraphPad Software) was used for data analysis.

SMILES: CC[C@@H](C)[C@@H]([C@@H](CC(=O)N1CCC[C@H]1[C@H](OC)[C@@H](C)C(=O)N[C@H](C)[C@@H](O)c1ccccc1)OC)N(C)C(=O)[C@@H](NC(=O)[C@H](C(C)C)N(C)C(=O)OCc1ccc(NC(=O)[C@@H]2CCCN2C(=O)CNC(=O)CCCCCN2C(=O)CC(SC[C@H](NC(=O)[C@H](CC(=O)O)NC(=O)[C@H](CCCCN)NC(=O)[C@H](CC(=O)O)NC(=O)CCC(=O)NC(COCCC(=O)NCCNC(=O)CCC(=O)Nc3cccc4c(C(=O)NCC(=O)N5CC(F)(F)C[C@H]5C#N)ccnc34)(COCCC(=O)NCCNC(=O)CCC(=O)Nc3cccc4c(C(=O)NCC(=O)N5CC(F)(F)C[C@H]5C#N)ccnc34)COCCC(=O)NCCNC(=O)CCC(=O)Nc3cccc4c(C(=O)NCC(=O)N5CC(F)(F)C[C@H]5C#N)ccnc34)C(=O)O)C2=O)cc1)C(C)C (stereo in doubt) [Tri-ESV6-GlyPro-MMAE]
- MMAE release in tumor and healthy organs, in words (HT-1080.hFAP tumors): cleaner biodistribution profile, with high and prolonged accumulation at the tumor site, and lower release in the healthy organs
- tolerability (body weight change), in words [1]: well tolerated
